This data set relates to Escherichia coli TOP10. In words: shrunken log2 fold change of peptide-encoding DNA abundance (4.5 h post-induction vs induction); higher = less antimicrobial activity (less host growth inhibition). The note with it: time post-induction: 4.5 h; library: site-saturation at positions 5, 18, 19, 20.
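Also: peptides expressed intracellularly from a pBAD plasmid library in pooled LB shake-flask culture, induced with 0.3% L-arabinose, DNA abundance read by NGS, three biological replicates, DESeq2 with apeglm shrinkage.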

RRIRLRPPRLPRPRPRPEPEPRP: the “shrunken log2 fold change” value is 0.551. The value for RRIRHRPPRLPRPRPRPGKKPRP was -0.0335; that for RRIRPRPPRLPRPRPRPELDPRP was 0.0969. As for RRIRARPPRLPRPRPRPQFQPRP, the “shrunken log2 fold change” value stood at 0.0187. On to RRIRIRPPRLPRPRPRPAFDPRP, for which the “shrunken log2 fold change” value was -0.295. Take RRIRMRPPRLPRPRPRPYYFPRP: the “shrunken log2 fold change” value was -0.537. Regarding RRIRSRPPRLPRPRPRPKEIPRP, the “shrunken log2 fold change” value is -0.0586. The value for RRIRWRPPRLPRPRPRPAVPPRP was 0.506; that for RRIRYRPPRLPRPRPRPKYWPRP was -0.726; that for RRIRSRPPRLPRPRPRPIGTPRP was -0.25. As to RRIRSRPPRLPRPRPRPAGDPRP, the “shrunken log2 fold change” value stood at 0.116. The value for RRIRVRPPRLPRPRPRPKANPRP was 0.103.

Turning to RRIRCRPPRLPRPRPRPVKYPRP, the “shrunken log2 fold change” value is -0.596. The value for RRIRWRPPRLPRPRPRPVSPPRP was 0.175.

In the case of RRIRERPPRLPRPRPRPRAWPRP, the “shrunken log2 fold change” value is 0.195. The value for RRIRNRPPRLPRPRPRPPVIPRP was -0.00994. The value for RRIRMRPPRLPRPRPRPRDSPRP was 0.117. The value for RRIRLRPPRLPRPRPRPCKIPRP was -0.357. RRIRPRPPRLPRPRPRPESHPRP: the “shrunken log2 fold change” value was -0.00995. Turning to RRIRYRPPRLPRPRPRPRDDPRP, the “shrunken log2 fold change” value was -0.241. The value for RRIRIRPPRLPRPRPRPYMGPRP was -0.579. The value for RRIRMRPPRLPRPRPRPKVQPRP was 1.85; that for RRIRGRPPRLPRPRPRPHLDPRP was 0.34. The value for RRIRIRPPRLPRPRPRPLYNPRP was -0.522; that for RRIRIRPPRLPRPRPRPHQTPRP was 0.0701. For the sequence RRIRPRPPRLPRPRPRPFTTPRP, the “shrunken log2 fold change” value is -0.0187. On to RRIRYRPPRLPRPRPRPSHLPRP, for which the “shrunken log2 fold change” value was -0.286. Take RRIRMRPPRLPRPRPRPTDGPRP: the “shrunken log2 fold change” value was -0.0062.

As to RRIRRRPPRLPRPRPRPDGAPRP, the “shrunken log2 fold change” value is 0.766. With RRIRKRPPRLPRPRPRPLNIPRP, the “shrunken log2 fold change” value is -0.0957.

Consider RRIRPRPPRLPRPRPRPDARPRP, for which the “shrunken log2 fold change” value worked out at 0.58. Regarding RRIRGRPPRLPRPRPRPAINPRP, the “shrunken log2 fold change” value stood at 0.419. The value for RRIRKRPPRLPRPRPRPRWLPRP was 0.796. The value for RRIRTRPPRLPRPRPRPLLHPRP was 0.0651; that for RRIRIRPPRLPRPRPRPRSIPRP was 0.0721. The value for RRIRPRPPRLPRPRPRPESMPRP was 0.142; that for RRIRPRPPRLPRPRPRPDDMPRP was 0.0244. Turning to RRIRIRPPRLPRPRPRPMVWPRP, the “shrunken log2 fold change” value was found to be 0.0906. As for RRIRWRPPRLPRPRPRPSYRPRP, the “shrunken log2 fold change” value was -0.895.

Turning to RRIRGRPPRLPRPRPRPQGPPRP, the “shrunken log2 fold change” value was 0.224. Turning to RRIRFRPPRLPRPRPRPNLLPRP, the “shrunken log2 fold change” value was -0.187. As to RRIRFRPPRLPRPRPRPTPSPRP, the “shrunken log2 fold change” value amounted to 0.636. The value for RRIRPRPPRLPRPRPRPEEHPRP was -0.0242; that for RRIRKRPPRLPRPRPRPYQEPRP was 0.0431.

In the case of RRIRPRPPRLPRPRPRPLKPPRP, the “shrunken log2 fold change” value came out at 0.0408. The value for RRIRHRPPRLPRPRPRPDYSPRP was -0.657. As to RRIRFRPPRLPRPRPRPHLVPRP, the “shrunken log2 fold change” value was -0.33. The value for RRIRLRPPRLPRPRPRPLVSPRP was 0.0156.

Turning to RRIRYRPPRLPRPRPRPVFHPRP, the “shrunken log2 fold change” value is -0.492. The value for RRIRVRPPRLPRPRPRPMFWPRP was 0.285.

Take RRIRVRPPRLPRPRPRPQHPPRP: the “shrunken log2 fold change” value is -0.0951. The value for RRIRHRPPRLPRPRPRPHHCPRP was -0.152; that for RRIRVRPPRLPRPRPRPGYVPRP was -0.351. Consider RRIRTRPPRLPRPRPRPVNVPRP, for which the “shrunken log2 fold change” value was -0.172. As for RRIRKRPPRLPRPRPRPFVEPRP, the “shrunken log2 fold change” value was 0.0241. The value for RRIRCRPPRLPRPRPRPRTDPRP was 0.0321. The value for RRIRIRPPRLPRPRPRPHLVPRP was -0.573; that for RRIRFRPPRLPRPRPRPIYTPRP was -0.424; that for RRIRDRPPRLPRPRPRPGCFPRP was 0.565. For RRIRGRPPRLPRPRPRPTLCPRP, the “shrunken log2 fold change” value is 0.443.

With RRIRKRPPRLPRPRPRPAAIPRP, the “shrunken log2 fold change” value worked out at 0.255. RRIRKRPPRLPRPRPRPKCRPRP: the “shrunken log2 fold change” value amounted to 0.175.

Consider RRIRFRPPRLPRPRPRPMYSPRP, for which the “shrunken log2 fold change” value was -0.73. The value for RRIRGRPPRLPRPRPRPSMQPRP was 0.599; that for RRIRNRPPRLPRPRPRPGFHPRP was -0.0379.

In the case of RRIRFRPPRLPRPRPRPQPTPRP, the “shrunken log2 fold change” value came to 0.597. As for RRIRPRPPRLPRPRPRPKGYPRP, the “shrunken log2 fold change” value is -0.13. The value for RRIRDRPPRLPRPRPRPCVNPRP was 0.0261; that for RRIRCRPPRLPRPRPRPTYGPRP was -0.0844; that for RRIRFRPPRLPRPRPRPCVVPRP was -0.379. With RRIRARPPRLPRPRPRPMYTPRP, the “shrunken log2 fold change” value is -0.0517. The value for RRIRARPPRLPRPRPRPGKNPRP was 0.124; that for RRIRDRPPRLPRPRPRPMTCPRP was 0.0184; that for RRIRFRPPRLPRPRPRPIHFPRP was -0.246. The value for RRIRARPPRLPRPRPRPSPFPRP was 0.0195; that for RRIRMRPPRLPRPRPRPKMLPRP was 0.231. The value for RRIRMRPPRLPRPRPRPDPNPRP was 0.0963; that for RRIRIRPPRLPRPRPRPEEEPRP was -0.031.

Regarding RRIRPRPPRLPRPRPRPMQHPRP, the “shrunken log2 fold change” value was -0.0486.

For RRIRYRPPRLPRPRPRPSANPRP, the “shrunken log2 fold change” value was -0.0919.

As for RRIRFRPPRLPRPRPRPPHCPRP, the “shrunken log2 fold change” value is 0.362. Regarding RRIRERPPRLPRPRPRPFMNPRP, the “shrunken log2 fold change” value was -0.00101.

RRIRFRPPRLPRPRPRPMTRPRP: the “shrunken log2 fold change” value was -0.173. Regarding RRIRERPPRLPRPRPRPMMHPRP, the “shrunken log2 fold change” value was 0.0413. The value for RRIRMRPPRLPRPRPRPEQHPRP was 1.06. In the case of RRIRGRPPRLPRPRPRPREFPRP, the “shrunken log2 fold change” value is 1.07. Regarding RRIRTRPPRLPRPRPRPDARPRP, the “shrunken log2 fold change” value turned out to be 0.0965. With RRIRDRPPRLPRPRPRPWTMPRP, the “shrunken log2 fold change” value is -0.0209. The value for RRIRARPPRLPRPRPRPPEGPRP was 0.783. The value for RRIRERPPRLPRPRPRPIGVPRP was 0.0489; that for RRIRARPPRLPRPRPRPIFCPRP was 0.445. For RRIRERPPRLPRPRPRPYEAPRP, the “shrunken log2 fold change” value is -0.59.

Turning to RRIRPRPPRLPRPRPRPSAKPRP, the “shrunken log2 fold change” value came out at 0.528. With RRIRYRPPRLPRPRPRPIQHPRP, the “shrunken log2 fold change” value was -0.89. The value for RRIRFRPPRLPRPRPRPAIWPRP was 0.195; that for RRIRMRPPRLPRPRPRPQNQPRP was -0.183. The value for RRIRTRPPRLPRPRPRPGVHPRP was -0.055. Consider RRIRTRPPRLPRPRPRPNRTPRP, for which the “shrunken log2 fold change” value is -0.002.

As to RRIRQRPPRLPRPRPRPVVQPRP, the “shrunken log2 fold change” value was -0.0933. With RRIRGRPPRLPRPRPRPMRDPRP, the “shrunken log2 fold change” value was found to be 0.947. As for RRIRYRPPRLPRPRPRPWLHPRP, the “shrunken log2 fold change” value is -0.991. Take RRIRKRPPRLPRPRPRPTMRPRP: the “shrunken log2 fold change” value was 1.02. The value for RRIRYRPPRLPRPRPRPAIVPRP was -0.0768. The value for RRIRHRPPRLPRPRPRPKREPRP was -0.0483; that for RRIRYRPPRLPRPRPRPITEPRP was -0.101. The value for RRIRWRPPRLPRPRPRPSDCPRP was -0.183; that for RRIRPRPPRLPRPRPRPIKPPRP was -0.0651; that for RRIRRRPPRLPRPRPRPDEHPRP was -0.0368. Turning to RRIRRRPPRLPRPRPRPIMTPRP, the “shrunken log2 fold change” value was determined as 0.125.

Turning to RRIRCRPPRLPRPRPRPKKEPRP, the “shrunken log2 fold change” value turned out to be 0.00726. The value for RRIRSRPPRLPRPRPRPIDQPRP was -0.174; that for RRIRWRPPRLPRPRPRPQTRPRP was 0.122. Turning to RRIRFRPPRLPRPRPRPYFMPRP, the “shrunken log2 fold change” value is -1.02. In the case of RRIRMRPPRLPRPRPRPWIAPRP, the “shrunken log2 fold change” value was -0.00608. The value for RRIRDRPPRLPRPRPRPACRPRP was 0.219; that for RRIRWRPPRLPRPRPRPRHSPRP was 0.286; that for RRIRWRPPRLPRPRPRPVCCPRP was 0.469. In the case of RRIRSRPPRLPRPRPRPKVVPRP, the “shrunken log2 fold change” value was determined as 0.00912. For RRIRCRPPRLPRPRPRPCCPPRP, the “shrunken log2 fold change” value was -0.316. Consider RRIRYRPPRLPRPRPRPEIGPRP, for which the “shrunken log2 fold change” value was 0.066.

For RRIRYRPPRLPRPRPRPMLIPRP, the “shrunken log2 fold change” value is -0.767. For the sequence RRIRRRPPRLPRPRPRPEIAPRP, the “shrunken log2 fold change” value is 0.84. The value for RRIRKRPPRLPRPRPRPICQPRP was -0.0166; that for RRIRIRPPRLPRPRPRPMNNPRP was -0.465. The value for RRIRQRPPRLPRPRPRPLNMPRP was -0.423.

These data come from the supplement of paper PMC9112550, “Optimization of the antimicrobial peptide Bac7 by deep mutational scanning” (BMC Biology, 2022).
